Source: patent publication US20120114557A1

Assays:
Compound ID No 1014 [1] = biological target: T1, Compound ID No 1014; experiment: competition in the dried collagen assay: 1.6 uM soluble competitor protein, 5 uM Comp ID No 1014, 5 uM insoluble type I rat collagen
T1 chain: KKWHCYTYFPHHYCVYG

Compound ID No 1014 [2] = biological target: T1, Compound ID No 1014; experiment: competition in the dried collagen assay: 1.6 uM soluble competitor protein, 5 uM Comp ID No 1014, 5 uM insoluble type I human collagen

B1: Type IV human collagen (soluble competitor protein), P02462 28-1669; P08572 26-1712 (protein)
chain 1: not shown
chain 2: FLAQSVLAGVKKFDVPCGGRDCSGGCQCYPEKGGRGQPGPVGPQGYNGPPGLQGFPGLQGRKGDKGERGAPGVTGPKGDVGARGVSGFPGADGIPGHPGQGGPRGRPGYDGCNGTQGDSGPQGPPGSEGFTGPPGPQGPKGQKGEPYALPKEERDRYRGEPGEPGLVGFQGPPGRPGHVGQMGPVGAPGRPGPPGPPGPKGQQGNRGLGFYGVKGEKGDVGQPGPNGIPSDTLHPIIAPTGVTFHPDQYKGEKGSEGEPGIRGISLKGEEGIMGFPGLRGYPGLSGEKGSPGQKGSRGLDGYQGPDGPRGPKGEAGDPGPPGLPAYSPHPSLAKGARGDPGFPGAQGEPGSQGEPGDPGLPGPPGLSIGDGDQRRGLPGEMGPKGFIGDPGIPALYGGPPGPDGKRGPPGPPGLPGPPGPDGFLFGLKGAKGRAGFPGLPGSPGARGPKGWKGDAGECRCTEGDEAIKGLPGLPGPKGFAGINGEPGRKGDRGDPGQHGLPGFPGLKGVPGNIGAPGPKGAKGDSRTITTKGERGQPGVPGVPGMKGDDGSPGRDGLDGFPGLPGPPGDGIKGPPGDPGYPGIPGTKGTPGEMGPPGLGLPGLKGQRGFPGDAGLPGPPGFLGPPGPAGTPGQIDCDTDVKRAVGGDRQEAIQPGCIGGPKGLPGLPGPPGPTGAKGLRGIPGFAGADGGPGPRGLPGDAGREGFPGPPGFIGPRGSKGAVGLPGPDGSPGPIGLPGPDGPPGERGLPGEVLGAQPGPRGDAGVPGQPGLKGLPGDRGPPGFRGSQGMPGMPGLKGQPGLPGPSGQPGLYGPPGLHGFPGAPGQEGPLGLPGIPGREGLPGDRGDPGDTGAPGPVGMKGLSGDRGDAGFTGEQGHPGSPGFKGIDGMPGTPGLKGDRGSPGMDGFQGMPGLKGRPGFPGSKGEAGFFGIPGLKGLAGEPGFKGSRGDPGPPGPPPVILPGMKDIKGEKGDEGPMGLKGYLGAKGIQGMPGIPGLSGIPGLPGRPGHIKGVKGDIGVPGIPGLPGFPGVAGPPGITGFPGFIGSRGDKGAPGRAGLYGEIGATGDFGDIGDTINLPGRPGLKGERGTTGIPGLKGFFGEKGTEGDIGFPGITGVTGVQGPPGLKGQTGFPGLTGPPGSQGELGRIGLPGGKGDDGWPGAPGLPGFPGLRGIRGLHGLPGTKGFPGSPGSDIHGDPGFPGPPGERGDPGEANTLPGPVGVPGQKGDQGAPGERGPPGSPGLQGFPGITPPSNISGAPGDKGAPGIFGLKGYRGPPGPPGSAALPGSKGDTGNPGAPGTPGTKGWAGDSGPQGRPGVFGLPGEKGPRGEQGFMGNTGPTGAVGDRGPKGPKGDPGFPGAPGTVGAPGIAGIPQKIAVQPGTVGPQGRRGPPGAPGEMGPQGPPGEPGFRGAPGKAGPQGRGGVSAVPGFRGDEGPIGHQGPIGQEGAPGRPGSPGLPGMPGRSVSIGYLLVKHSQTDQEPMCPVGMNKLWSGYSLLYFEGQEKAHNQDLGLAGSCLARFSTMPFLYCNPGDVCYYASRNDKSYWLSTTAPLPMMPVAEDEIKPYISRCSVCEAPAIAIAVHSQDVSIPHCPAGWRSLWIGYSFLMHTAAGDEGGGQSLVSPGSCLEDFRATPFIECNGGRGTCHYYANKYSFWLTTIPEQSFQGSPSADTLKAGLIRTHISRCQVCMKNL
modifications: here or on the partner: as printed: Gd^T-K(Gd^D)-K(Gd^D)-W-H-C-Y-T-Y-F-P-H-H-Y-C-V-Y-G; Gd^T = GdDTPA-thiourea, Gd^D = GdDOTAGA; cyclic through a disulfide between the two cysteines
% of Comp ID No 1014 bound to insoluble rat collagen in presence of the competitor (Compound ID No 1014 [1]): 28.1%
% of Comp ID No 1014 bound to insoluble human collagen in presence of the competitor (Compound ID No 1014 [2]): 59.9%
